According to the DeepSol protein solubility set:

Assay: soluble on expression in E. coli; label from the status in PepcDB or PDB records

| Sequence | soluble on expression in E. coli |
| --- | --- |
| MNKKLMTLAVFLFSSAASAASTDATVNLVNANGTGQKIGNITITETEYGLLFTPHLSSLPAGIHGFHIHENGSCDAGMKDGKPVAALAAGGHLDPQHTNKHLGPYNPEGHLGDLPALYVNQAGNADYPVLAPRLKSISQVKGHAIMIHTGGDNHEDHPNPLGGGGARIACGVIK | not soluble |
| MKEEKRSSTGFLVKQRAFLKLYMITMTEQERLYGLKLLEVLRSEFKEIGFKPNHTEVYRSLHELLDDGILKQIKVKKEGAKLQEVVLYQFKDYEAAKLYKKQLKVELDRSKKLIEKALSDNF | soluble |
| IRVNTNKGGGVWESGAANSQSTSWGSGNGANSGGSRRGWGTPAQNTGTNLPSVEWNKLPSNQHSNDSANGNGKTFTNGWKSTEEEDQGSATSQTNEQSSVWAKTGGTVESDGSTESTGRLEEKGTGESQSRDRRKIDQHTLLQSIVNRTDLDPRVLSNSGWGQTPIKQNTAWDTETSPRGERKTDNGTEAWGSSATQTFNSGACIDKTSPNGNDTSSVSGWGDPKPALRWGDSKGSNCQGGWEDDSAATGMVKSNQWGNCKEEKAAWNDSQKNKQGWGDGQKSSQGWSVSASDNWGETSRNNHWGEANKKSSSGGSDSDRSVSGWNELGKTSSFTWGNNINPNNSSGWDESSKPTPSQGWGDPPKSNQSLGWGDSSKPVSSPDWNKQQDIVGSWGIPPATGKPPGTGWLGGPIPAPAKEEEPTGWEEPSPESIRRKMEIDDGTSAWGDPSKYNYKNVNMWNKNVPNGNSRSDQQAQVHQLLTPASAISNKEASSGSGWGEPWGEPSTPATTVDNGTSAWGKPIDSGPSWGEPIAAASSTSTWGSSSVGPQALSKSGPKSMQDGWCGDDMPLPGNRPTGWEEEEDVEIGMWNSNSSQELNSSLNWPPYTKKMSSKGLSGKKRRRERGMMKGGNKQEEAWINPFVKQFSNISFSRDSPEENVQSNKMDLSGGMLQDKRMEIDKHSLNIGDYNRTVGKGPGSRPQISKESSMERNPYFDKDGIVADESQNMQFMSSQSMKLPPSNSALPNQALGSIAGLGMQNLNSVRQNGNPSMFGVGNTAAQPRGMQQPPAQPLSSSQPNLRAQVPPPLLSPQVPVSLLKYAPNNGGLNPLFGPQQVAMLNQLSQLNQLSQISQLQRLLAQQQRAQSQRSVPSGNRPQQDQQGRPLSVQQQMMQQSRQLDPNLLVKQQTPPSQQQPLHQPAMKSFLDNVMPHTTPELQKGPSPINAFSNFPIGLNSNLNVNMDMNSIKEPQSRLRKWTTVDSISVNTSLDQNSSKHGAISSGFRLEESPFVPYDFMNSSTSPASPPGSIGDGWPRAKSPNGSSSVNWPPEFRPGEPWKGYPNIDPETDPYVTPGSVINNLSINTVREVDHLRDRNSGSSSSLNTTLPSTSAWSSIRASNYNVPLSSTAQSTSARNSDSKLTWSPGSVTNTSLAHELWKVPLPPKNITAPSRPPPGLTGQKPPLSTWDNSPLRIGGGWGNSDARYTPGSSWGESSSGRITNWLVLKNLTPQIDGSTLRTLCMQHGPLITFHLNLPHGNALVRYSSKEEVVKAQKSLHMCVLGNTTILAEFASEEEISRFFAQSQSLTPSPGWQSLGSSQSRLGSLDCSHSFSSRTDLNHWNGAGLSGTNCGDLHGTSLWGTPHYSTSLWGPPSSSDPRGISSPSPINAFLSVDHLGGGGESM | soluble |
| MSLNCERVWLNVTPATLRSDLADYGLLEPHALGVHEGRIHALVPMQDLKGPYPAHWQDMKGKLVTPGLIDCHTHLIFAGSRAEEFELRQKGVPYAEIARKGGGIISTVRATRAASEDQLFELALPRVKSLIREGVTTVEIKSGYGLTLEDELKMLRVARRLGEALPIRVKTTLLAAHAVPPEYRDDPDSWVETICQEIIPAAAEAGLADAVDVFCEHIGFSLAQTEQVYLAADQYGLAVKGHMDQLSNLGGSTLAANFGALSVDHLEYLDPEGIQALAHRGVVATLLPTAFYFLKETKLPPVVALRKAGVPMAVSSDINPGTAPIVSLRMAMNMACTLFGLTPVEAMAGVTRHAARALGEQEQLGQLRVGMLADFLVWNCGHPAELSYLIGVDQLVSRVVNGEETLHGEGHHHHHH | soluble |
| MASQGFSVYVGNVPYQGTEEEIGNYFAAVGHVNNVRIVYDRETGRPRGFAFVEFSEEAGAQRAVEQLNGVAFNGRNLRVNYANK | soluble |
| VDGDQCESNPCLNGGSCKDDINSYECWCPFGFEGKNCEL | soluble |
| MSLHNVVISGTGLFTPANSISNEELVESFNTYVHQFNSDNAAAIERGEVQALTESNAAFIEKASGIKSRFVMDKDGILDPQRMAPRLPERSNDEWSVLCQMAVAAAEQALQRAGKTAADIDGVIVACSNLQRAYPAIAIEVQAALGIQGFGFDMNVACSSATFGIQAACNSVQLGQARAILMVNPEVCTGHLNFRDRDSHFIFGDAATAVVIERADLATSEHQFDIVSTKLLTQFSNNIRNNFGFLNRAAEEGIGARDKLFVQEGRKVFRDVCPMVAELIAAHLEENQLNVSDVKRFWLHQANLSMNHLIVKKLLCREASVEEAPVILDTYANTSSAGSVIAFHKYQDDLASGSLAVLSSFGAGYSIGSVLLRKREGHHHHHH | soluble |
| RKILDSKAIDLMNALMRLNQIRPGLQYKLLSQSGPVHAPVFTMSVDVDGTTYEASGPSKKTAKLHVAVKVLQAMGYPTGFDADI | soluble |
| MGSDKIHHHHHHLVSDNMVLQQATKVRLWGNATPNSSLKVRSSWDNTEYTAQVNDQGRWEIWVQTPSASFEKQQLTLKNGQDKIVLHDLLIGEVWFGSGQSNMEMPLRGFWHCPIEGGNHAIATSGKYKNSIRYATIQRVGALEPKDYPVGGEWKVCDPRNAPEFGATAYFFATLLTEVLNVPVGIINCSWGGSTVEGWLPKDILRNYSDIDLSLAGNDEKIHPMLQPMIMYNGMLKPASKYTVRGFLWYQGESNVGHPDYAKRLATMVEHWRGLWGQEELPFYLVEIAPYEYGEGDQAAYLREEQYKATRLIPNSGIVSTNDLVQDYEKRQIHPKEKQKIGERLCYMALNKTYGYTTIACEGPQYDHMEVDKDKIILFFKNAEDGFNRDNGIIGFEIAGKDMRFHKANATIDANKKTVIISAPDVKAPIAVRYGFRNFQIGNLQNVQGLPVLPFRTDK | not soluble |
| MRVQPVTNCEKAVILEALKIGKRFDFRSLEEFRDVKLVVGAEVGTAICTIGNTKVMAAVSAEIAEPSSMRPHKGVINIDVDLSPMANYANEHDRLGSKGMELIRLLELIIRDSRCIDVEALCIRAGKEIWKIRVDVRILDEDGSLLDCACLAAITALQHFRRPNVTLEPHHTLIYSEYEKAPVPLNIYHMPICTTIGLLDKGQIVVIDPTDKETACLDGSIVVACNKRREVCALHQSTNLILSTKQIERCVKLAMARAEALTAVVSDVIKQDQIERSAFKRPDGFAITTPSLILTAGTTASRQIRAPVIKTEPESFTQRSLYQPSVILNENPLSVGSVKQEDVDEETLLAEQLTTIQNSVGQVEVTEKQTVAVSSRKREVEEVNDLLDGLDDDDEEEEVQTMTLGSETVLNDVPMEEAPDAEDSLVNAKKKKKK | not soluble |
| MGSDKIHHHHHHMHSMRLSQIQDFIAVAEGGSIRAAARTRDVSAPALTKSIRQLEDELHVPLLTRTTRGVVLSHYGEAFLRRARLIATEARRATEEMTQMLGARTGTVRIGVTGGPAHLLLPAALNRFRRQHPEVQVYIDSGRSAVHLQDLRAGLIDVAVSPIPDEGIDHDFICEPLYNNDSVVVAHQDHPLRHARTLRELVGSEWILTTCRMHGPGAAIMDAFRAQDLPLPRVAVRCDTFNLIQALLQNRRLLCMVARQLMQDRVGASTGLAVLPIEDPLPSHTVCLIYRADSPMPPVVASFAAQLRREAHYLINMPDSPLKRPGAPPEPRDDKPVETADIAV | not soluble |
| HPKLVSSTPAEGSEGAAPAKIELHFSENLVTQFSGAKLVMTAMPGMEHSPMAVKAAVSGGGDPKTMVITPASPLTAGTYKVDWRAVSSDTFPITGSVTFKVK | soluble |
| MSLNVTVHGVPVGSLTREEARAKIESHFAPFLAQPVMLTYSGRTWTPTLAELGAELAIDEAVDKAVAVGRGHDLFTNLQQIGAVWQRGLELPLHLSIDQDALQRYLLDRVAEVERPAVDARLVLHGTTVRVEPSAFGRQVLVNDTLHEIVAALQDLNPDTIALRTRTLEPALRDDAAIVAQDQIAALLAGPITLLIDDRPFVWSLDELARMVRVERIPDPAGDRLVVSIDHELVRARIREIGDATEVKGTYPRLNWNDGRLEIFQEGKPGRRIDEDQVFAAVLDALTKPAEQRTVTVAFREIPPPITAANLDQLGITTLIGVGRSDFTGSAAYRVTNIQAGMRLLHGVLIAPGEEFSFNQTIGRIDRSNGFVEGYAIIQNRTQLEWGGGICQDSTTMFRAAFWAGLPITERWGHSFYISWYDRYAFGPYGDGPGMDATIFTGGPDLKFLNDTGGWLLIQTLVDTHRHLAEVRLYGPDTGRKVLLEGPIITNRTEGHHHHHH | soluble |
| MKTETPSVKIVAITADEAGQRIDNFLRTQLKGVPKSMIYRILRKGEVRVNKKRIKPEYKLEAGDEVRIPPVRVAEREEEAVSPHLQKVAALADVILYEDDHILVLNKPSGTAVHGGSGLSFGVIEGLRALRPEARFLELVHRLDRDTSGVLLVAKKRSALRSLHEQLREKGMQKDYLALVRGQWQSHVKSVQAPLLKNILQSGERIVRVSQEGKPSETRFKVEERYAFATLVRCSPVTGRTHQIRVHTQYAGHPIAFDDRYGDREFDRQLTEAGTGLNRLFLHAAALKFTHPGTGEVMRIEAPMDEGLKRCLQKLRNAR | soluble |
| MSLIQLRPCPKSYTRDQDKATTPAETVRRVRERLASLDISILAETRRVDVGRLGIPVFLSVCGADARAVMPTRKQMGKGASLEQAQASALMELMERYSFFTFWRDMPGMVEATWSEARNRFGDALIPVDEILHSVHDTLSPDDAVRALDLWRWKFFPATDITHGREVWLPLDWFKKLGEFNGSSAGNTEEESILQGSCELVERHVCCLIDRTQPELPTIDPASLDDPVLLELAAAFERNGIRLVLKDFSMGMPVPTVGAIAWDPATFPERSEIVYTAGTSSSPVKAAIRAVTEVAQLAGDFCTGACYEASGLSKYESLDDIAWLVAGPVVALDTLPSVETDDIRDELAALCDGLAATGHTLYSVSTMNPDVGVNTHYNIVPGFHFRERDRNAEGHHHHHH | not soluble |
| MRILLIEDDMLIGDGIKTGLSKMGFSVDWFTQGRQGKEALYSAPYDAVILDLTLPGMDGRDILREWREKGQREPVLILTARDALAERVEGLRLGADDYLCKPFALIEVAARLEALMRRTNGQASNELRHGNVMLDPGKRIATLAGEPLTLKPKEFALLELLMRNAGRVLSRKLIEEKLYTWDEEVTSNAVEVHVHHLRRKLGSDFIRTVHGIGYTLGEK | soluble |
| QVAKNPAPQAVEQAQSSSSLPAPSFADELDPVPGQQQASAKTITVTTDVLTLSIDTVGGDVVHADLNQYSAELDSSDPFVLLKDTQGHQFIAQSGLVGPQGIDLSSSNRPHYNVSADSFTLADGQDELRVPMTFTANGIEYTKTYVLKRGSYALNVEYDVANNSGNNATFGMYAHLRQNLMDAGGSITMPTYRGGAYSTEDTRYKKYSFEDMQDRNLSINLADGQGWAAMIQHYFAAAWIPRNEPGTNLYTRVIGNLGDIGVRMPNKTIATGDQAKFEATLWVGPKLQQEMAAVAPNLDLVVDYGWLWFIAKPLHS | not soluble |
| MSTPIPPSSPPSTPTTRANNRTKSFSGTGTVATTACICGNVPIALSANTLADSLKVSPLYKQQDSARWNAAAQVYRTSRAVSPTLEEKEKFGFDNAYINQMISPKMSIPKTPISLEEIADMNRKRHEVEGGVIPSDDDVGPLELEAIAAVHELAHEVQDISVSEMLPRTSDLIFVNVKTQEGSPYTLELTMKGWRIASSHTDCMNGDYTKISLHTKYYRNARELLKFISPDHATRFNECVAQKLSKLAEVAVQ | not soluble |
